Consider 94 variants from the supplement of paper PMC10567573.

The chains are these.
B1: SMG5 (parent)
chain: TRKLSPGKKRCKDIKRLLVNFMYL
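Note: lentivirally expressed fusions sorted by FACS into six bins by GFP to DsRed ratio, PSI derived from sequencing read proportions per bin multiplied by bin number.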

The data set covers variants of B1. Put plainly: protein stability index of a GFP-peptide fusion (GPS, HEK-293T) (PSI 1-6); higher = more stable. As to conditions: c terminus: a fixed tail appended.
For TRKLSPVKKRCKDIKRLLVNFMYL [G7V], the protein stability index amounted to 2.47.

On to TRKLSPPKKRCKDIKRLLVNFMYL [G7P], for which the protein stability index turned out to be 1.96.

With TRKLSPSKKRCKDIKRLLVNFMYL [G7S], the protein stability index is 2.17.

As to TRKLSPIKKRCKDIKRLLVNFMYL [G7I], the protein stability index was 2.87.

In the case of TRKLSPQKKRCKDIKRLLVNFMYL [G7Q], the protein stability index worked out at 1.86.

TRKLSPKKKRCKDIKRLLVNFMYL [G7K]: the protein stability index worked out at 3.32.

In the case of TRKLSPFKKRCKDIKRLLVNFMYL [G7F], the protein stability index is 2.24.

In the case of TRKLSPTKKRCKDIKRLLVNFMYL [G7T], the protein stability index turned out to be 2.22.

On to TRKLSPLKKRCKDIKRLLVNFMYL [G7L], for which the protein stability index was found to be 4.07.

As for TRKLSPNKKRCKDIKRLLVNFMYL [G7N], the protein stability index was determined as 2.08.

Consider TRKLSPAKKRCKDIKRLLVNFMYL [G7A], for which the protein stability index worked out at 2.87.

Consider TRKLSPMKKRCKDIKRLLVNFMYL [G7M], for which the protein stability index is 3.1.

For the variant TRKLSPEKKRCKDIKRLLVNFMYL [G7E], the protein stability index was 1.97.

Turning to TRKLSPRKKRCKDIKRLLVNFMYL [G7R], the protein stability index worked out at 2.47.

As for TRKLGPGKKRCKDIKRLLVNFMYL [S5G], the protein stability index was 2.7.

In the case of TRKLPPGKKRCKDIKRLLVNFMYL [S5P], the protein stability index stood at 2.54.

Regarding TRKLLPGKKRCKDIKRLLVNFMYL [S5L], the protein stability index came out at 1.55.

TRKLQPGKKRCKDIKRLLVNFMYL [S5Q]: the protein stability index turned out to be 2.62.

Take TRKLDPGKKRCKDIKRLLVNFMYL [S5D]: the protein stability index was found to be 2.41.

TRKLFPGKKRCKDIKRLLVNFMYL [S5F]: the protein stability index is 4.07.

With TRKLTPGKKRCKDIKRLLVNFMYL [S5T], the protein stability index was found to be 1.02.

With TRKLKPGKKRCKDIKRLLVNFMYL [S5K], the protein stability index amounted to 4.05.

For the variant TRKLSPGKMRCKDIKRLLVNFMYL [K9M], the protein stability index stood at 2.31.

In the case of TRKLSPGKNRCKDIKRLLVNFMYL [K9N], the protein stability index came to 4.29.

For the variant TRKLSPGKPRCKDIKRLLVNFMYL [K9P], the protein stability index came out at 2.4.

Take TRKLSPGKTRCKDIKRLLVNFMYL [K9T]: the protein stability index was 2.64.

For TRKLSPGKCRCKDIKRLLVNFMYL [K9C], the protein stability index came out at 2.14.

On to TRKLSPGKVRCKDIKRLLVNFMYL [K9V], for which the protein stability index was 2.04.

Take TRKLSPGKFRCKDIKRLLVNFMYL [K9F]: the protein stability index came to 3.

As for TRKLSPGKLRCKDIKRLLVNFMYL [K9L], the protein stability index worked out at 3.19.

Take TRKLSPGKYRCKDIKRLLVNFMYL [K9Y]: the protein stability index came out at 2.15.

For TRKLSPGKGRCKDIKRLLVNFMYL [K9G], the protein stability index is 1.4.

Turning to TRKLSPGKDRCKDIKRLLVNFMYL [K9D], the protein stability index was 3.59.

Take TRKLSPGKSRCKDIKRLLVNFMYL [K9S]: the protein stability index came to 2.86.

Take TRKLSPGKERCKDIKRLLVNFMYL [K9E]: the protein stability index came out at 2.32.

As for TRKLSPGFKRCKDIKRLLVNFMYL [K8F], the protein stability index worked out at 4.35.

For the variant TRKLSPGLKRCKDIKRLLVNFMYL [K8L], the protein stability index worked out at 2.75.

Take TRKLSPGNKRCKDIKRLLVNFMYL [K8N]: the protein stability index was found to be 1.74.

With TRKLSPGWKRCKDIKRLLVNFMYL [K8W], the protein stability index turned out to be 2.79.

For TRKLSPGSKRCKDIKRLLVNFMYL [K8S], the protein stability index worked out at 1.98.

As for TRKLSPGTKRCKDIKRLLVNFMYL [K8T], the protein stability index was 2.64.

In the case of TRKLSPGCKRCKDIKRLLVNFMYL [K8C], the protein stability index came out at 3.19.

For TRKLSPGEKRCKDIKRLLVNFMYL [K8E], the protein stability index came to 3.52.

Turning to TRKLSPGGKRCKDIKRLLVNFMYL [K8G], the protein stability index was 1.05.

As to TRKLSPGHKRCKDIKRLLVNFMYL [K8H], the protein stability index turned out to be 3.49.

For the variant TRKLSPGRKRCKDIKRLLVNFMYL [K8R], the protein stability index was determined as 2.2.

TRKLSPGKKRCFDIKRLLVNFMYL [K12F]: the protein stability index stood at 2.73.

Take TRKLSPGKKRCGDIKRLLVNFMYL [K12G]: the protein stability index was 2.95.

Consider TRKLSPGKKRCCDIKRLLVNFMYL [K12C], for which the protein stability index is 3.37.

As for TRKLSPGKKRCADIKRLLVNFMYL [K12A], the protein stability index worked out at 3.77.

Take TRKLSPGKKRCDDIKRLLVNFMYL [K12D]: the protein stability index turned out to be 1.41.

Consider TRKLSPGKKRCEDIKRLLVNFMYL [K12E], for which the protein stability index is 4.79.

With TRKLSPGKKSCKDIKRLLVNFMYL [R10S], the protein stability index was determined as 2.03.

With TRKLSPGKKKCKDIKRLLVNFMYL [R10K], the protein stability index turned out to be 2.07.

As for TRKLSPGKKPCKDIKRLLVNFMYL [R10P], the protein stability index is 3.4.

In the case of TRKLSPGKKYCKDIKRLLVNFMYL [R10Y], the protein stability index amounted to 3.14.

With TRKLSPGKKNCKDIKRLLVNFMYL [R10N], the protein stability index turned out to be 3.09.

For the variant TRKLSPGKKLCKDIKRLLVNFMYL [R10L], the protein stability index turned out to be 3.06.

As for TRKLSPGKKDCKDIKRLLVNFMYL [R10D], the protein stability index worked out at 2.02.

As to TRKLSPGKKHCKDIKRLLVNFMYL [R10H], the protein stability index is 2.2.

Take TRKLSPGKKGCKDIKRLLVNFMYL [R10G]: the protein stability index was 3.25.

TRKLSPGKKCCKDIKRLLVNFMYL [R10C]: the protein stability index is 2.23.

Take TRKLSPGKKQCKDIKRLLVNFMYL [R10Q]: the protein stability index was determined as 3.

TRKLSPGKKECKDIKRLLVNFMYL [R10E]: the protein stability index was 2.67.

Turning to TRKYSPGKKRCKDIKRLLVNFMYL [L4Y], the protein stability index worked out at 2.63.

With TRKSSPGKKRCKDIKRLLVNFMYL [L4S], the protein stability index stood at 1.47.

Consider TRKTSPGKKRCKDIKRLLVNFMYL [L4T], for which the protein stability index came out at 1.62.

For the variant TRKLSVGKKRCKDIKRLLVNFMYL [P6V], the protein stability index was determined as 3.45.

For the variant TRKLSSGKKRCKDIKRLLVNFMYL [P6S], the protein stability index came to 2.1.

With TRKLSGGKKRCKDIKRLLVNFMYL [P6G], the protein stability index was determined as 2.69.

In the case of TRKLSNGKKRCKDIKRLLVNFMYL [P6N], the protein stability index amounted to 1.9.

On to TRKLSYGKKRCKDIKRLLVNFMYL [P6Y], for which the protein stability index stood at 3.31.

Consider TRKLSTGKKRCKDIKRLLVNFMYL [P6T], for which the protein stability index came out at 2.59.

With TRKLSLGKKRCKDIKRLLVNFMYL [P6L], the protein stability index stood at 2.45.

For the variant TRKLSQGKKRCKDIKRLLVNFMYL [P6Q], the protein stability index came out at 3.24.

For the variant TRKLSDGKKRCKDIKRLLVNFMYL [P6D], the protein stability index stood at 2.55.

Regarding TRKLSHGKKRCKDIKRLLVNFMYL [P6H], the protein stability index worked out at 2.4.

As to TRKLSPGKKRVKDIKRLLVNFMYL [C11V], the protein stability index came out at 1.4.

On to TRKLSPGKKRWKDIKRLLVNFMYL [C11W], for which the protein stability index stood at 3.27.

Regarding TRKLSPGKKRFKDIKRLLVNFMYL [C11F], the protein stability index came out at 3.81.

Turning to TRKLSPGKKRKKDIKRLLVNFMYL [C11K], the protein stability index worked out at 2.

With TRKLSPGKKRGKDIKRLLVNFMYL [C11G], the protein stability index stood at 1.42.

As to TRKLSPGKKRQKDIKRLLVNFMYL [C11Q], the protein stability index is 1.39.

Consider TRKLSPGKKRYKDIKRLLVNFMYL [C11Y], for which the protein stability index was determined as 1.91.

For TRKLSPGKKRAKDIKRLLVNFMYL [C11A], the protein stability index amounted to 3.02.

As to TRKLSPGKKRPKDIKRLLVNFMYL [C11P], the protein stability index is 2.26.

As to TRKLSPGKKRMKDIKRLLVNFMYL [C11M], the protein stability index came out at 1.93.

For the variant TRKLSPGKKRSKDIKRLLVNFMYL [C11S], the protein stability index was 1.4.

Regarding TRKLSPGKKRHKDIKRLLVNFMYL [C11H], the protein stability index was 1.58.

TRKLSPGKKREKDIKRLLVNFMYL [C11E]: the protein stability index was 2.58.

Take TRKLSPGKKRLKDIKRLLVNFMYL [C11L]: the protein stability index was found to be 2.46.

In the case of TRKLSPGKKRTKDIKRLLVNFMYL [C11T], the protein stability index was 1.59.

Turning to TRKLSPGKKRDKDIKRLLVNFMYL [C11D], the protein stability index stood at 1.79.

For the variant TRKLSPGKKRIKDIKRLLVNFMYL [C11I], the protein stability index was determined as 4.05.
